In publication PMC12700558, “Aggregation shifts amyloid-β peptides from synaptogenic to synaptotoxic” (The Journal of Clinical Investigation, 2025):

What was measured:
[1] = tested on: human neurons; assay: NLS-TdTomato cytotoxicity assay (cytoplasmic leakage of NLS-TdTomato); conditions: 5% DMSO or 200 μM hydrogen peroxide, each applied for 4 hours, DIV30
Method: The MTT assay employs yellow tetrazolium dye that is reduced to a purple formazan crystal by viable cells with active metabolism ([21]). Because it measures metabolic activity in all cells, this assay serves as a broad cytotoxicity read out for the entire glia/neuron coculture system. The amount of formazan produced is then measured because it is directly proportional to the number of viable cells ([21]) (Figure 1B and Supplemental Figure 1A). The nuclear localization TdTomato assay, conversely, enables monitoring of cellular stress by tracking the localization of fluorescent TdTomato fused to a nuclear localization signal. Under healthy conditions, the nuclear localization signal directs the NLS-TdTomato to the nucleus. When toxicity in a cell causes a reduction in ATP levels, NLS-TdTomato leaks out of the nucleus into the cytoplasm, which we scored as an index of toxicity (Figure 1, C and D, and Supplemental Figure 1, B–D). Because the reporter is expressed only in neurons, this assay specifically assesses neurotoxicity within the coculture. We developed this assay because it can be performed on live cells and reflects decreases in ATP levels in these cells. […]
To assess neuronal cytotoxicity induced by Aβ peptides, we employed a novel Td-Tomato cytotoxicity assay that we developed. […] Neurons displaying cytoplasmic Td-Tomato were counted as indicators of cytotoxicity. […]

[2] = tested on: human neurons cocultured with mouse glia; assay: Aβ42 fractionation experiment, MTT assay of supernatant and pellet; type: cell-based; conditions: fractions of Aβ42 preaggregated at 37°C for 24 hours, 20,000g 15 minutes; 0.2 μM chronic, DIV45
Method: Aggregation mixtures were centrifuged at 20,000g for 15 minutes at 4°C. The supernatant (enriched in monomer, small oligomers and residual larger species) was removed without disturbing the pellet. The pellet (large aggregates and high-molecular-weight oligomers) was resuspended in DMSO to the original volume. Supernatant and the resuspended pellet were administered to neurons, independently, at the concentration of 0.2 μM following the same protocol of administration used in this study (Figure 1A) and described above.

Row | Molecule | Validation of the NLS-TdTomato assay: nuclear-to-cytoplasmic shift of NLS-TdTomato (in words) [1] | Loss of viability, MTT assay (in words) [2]
1 | OO [hydrogen peroxide] | rapidly induced the nuclear-to-cytoplasmic shift of NLS-TdTomato | –
2 | supernatant: supernatant of centrifuged preaggregated Aβ42, enriched in monomer, small oligomers and residual larger species | – | same loss of viability
3 | pellet: pellet of centrifuged preaggregated Aβ42, large aggregates and high-molecular-weight oligomers, resuspended in DMSO | – | same loss of viability
